Patent US20240294595A1, “GLYCOPEPTIDES AND USES THEREOF” (Arizona Board of Regents on Behalf of the University of …, priority 2013, published 2024)
Where no end group is shown, it is not given here. [ ]: non-standard residue; d: D form. The star is where a group is joined. βGlc = OC[C@H]1O[C@@H](*)[C@H](O)[C@@H](O)[C@@H]1O; Nle = CCCC[C@H](N)C(=O)O

B1: Hs…Ñ…-Ser(Glc) (peptide)
peptide: HSDGIFTDSYSRYRKQXAVKKYLAAVS
modifications: here or on the partner: D-Serine at 2 (s); L-Nor-Leucine at 17 (Ñ, written X in letters); Ser 27 = L-Ser(β-D-Glc)
B2: Hs…Ñ…-Ser(Glc) (peptide)
peptide: HSDGIFTDSYSRYRKQXAVKKYLAAVLS
modifications: here or on the partner: D-Serine at 2 (s); L-Nor-Leucine at 17 (Ñ, written X in letters); Ser 28 = L-Ser(β-D-Glc)
B3: …-Ser(Mel) (peptide)
peptide: HSDGIFTDSYSRYRKQLAVKKYLAAVLS(melibiose)-NH2
B4: Hs…Ñ…-Ser(Glc)-L (peptide)
peptide: H[dS]DGIFTDSYSRYRKQ[Nle]AVKKYLAALS(βGlc)L-NH2
modifications: ends and bridges not checked
B5: PACAP6-38 (peptide)
peptide: FTDSYSRYRKQMAVKKYLAAVLGKRYKQRVKNK
modifications: ends and bridges not checked
B6: Hs…Ñ…-Ser(Glc) (peptide)
peptide: HSDGIFADSYSRYRKQXAVKKYLAAVLS
modifications: here or on the partner: D-Serine at 2 (s); L-Nor-Leucine at 17 (Ñ, written X in letters); Ser 28 = L-Ser(β-D-Glc)
B7: PACAP1-27-S-G (peptide)
peptide: HSDGIFTDSYSRYRKQMAVKKYLAAVLS
modifications: here or on the partner: added C-terminal serine carries glucose (serine glucoside)
B8: PACAP1-27 (peptide)
peptide: HSDGIFTDSYSRYRKQMAVKKYLAAVL
modifications: ends and bridges not checked

Biological target: human PAC1 receptor (PAC1-CHO clonal cell line) (human), P41586
Experiment: cell-based or functional assay

Chain of human PAC1 receptor (PAC1-CHO clonal cell line) (human), P41586 (P41586 21-468): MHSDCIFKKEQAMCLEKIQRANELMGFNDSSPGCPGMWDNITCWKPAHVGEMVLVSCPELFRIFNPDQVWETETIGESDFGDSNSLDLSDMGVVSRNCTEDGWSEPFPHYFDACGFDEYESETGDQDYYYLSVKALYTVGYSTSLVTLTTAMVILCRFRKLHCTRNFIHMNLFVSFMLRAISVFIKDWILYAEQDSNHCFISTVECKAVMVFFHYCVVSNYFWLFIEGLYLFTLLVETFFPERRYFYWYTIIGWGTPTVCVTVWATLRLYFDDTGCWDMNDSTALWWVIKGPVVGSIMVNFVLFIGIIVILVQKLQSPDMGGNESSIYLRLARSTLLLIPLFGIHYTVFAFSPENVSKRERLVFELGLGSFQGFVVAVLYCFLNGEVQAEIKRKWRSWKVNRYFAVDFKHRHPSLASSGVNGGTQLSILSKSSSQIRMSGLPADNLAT

Binder	EC50 (agonist) [nM]	EMax (agonist) [%]	other results
B1	54.5	86	–
B2	25.5	85	–
B3	0.57	99	–
B4	> 250	-79	–
B5	–	–	antagonist potency, variable concentration mode versus 5 nM PACAP1-27 (calcium flux, FLIPR): > 333 nM; pA2 (Gaddum/Schild EC50 shift model): 201 nM
B6	> 250	-71	–
B7	–	–	normalized efficacy (calcium flux, FLIPR; PACAP1-27 = 100%): 102%; potency of PAC1 activation (calcium flux, FLIPR, agonist mode, PAC1-CHO cells): 5.68 nM
B8	–	100	–
